The results in this text go back to article PMC9317729.

Usually stoichiometry N stands for the number of molecules, sites or subunits per partner or assembly.

In this experiment the target is S-RBD-Rhizavidin fusion protein (SARS-CoV-2 | not stated) (UniProt P0DTC2). Description: SEC-MALS; HPLC-SEC on AdvanceBio SEC 1.9 μm column, 0.4 mL/min, 20 mM HEPES, 100 mM sodium chloride, 25 °C; about 20 micrograms injected; MALS with first order Zimm fit. Background: Size exclusion chromatography separates by hydrodynamic size, large species first.

With “S-RBD-Rhizavidin fusion protein (from UniProt P0DTC2 331-524)”, the stoichiometry N was found to be 2.
